T1: FcγRIIa R (human, UniProt P12318 34-217)
T1 construct: extracellular domain; Soluble His-tagged extracellular domain expressed in FreeStyle293 cells; analyte in Biacore; also called FcgRIIa R; FcgRIIaR; not shown: His tag attached to the C terminus
T1 sequence (looked up): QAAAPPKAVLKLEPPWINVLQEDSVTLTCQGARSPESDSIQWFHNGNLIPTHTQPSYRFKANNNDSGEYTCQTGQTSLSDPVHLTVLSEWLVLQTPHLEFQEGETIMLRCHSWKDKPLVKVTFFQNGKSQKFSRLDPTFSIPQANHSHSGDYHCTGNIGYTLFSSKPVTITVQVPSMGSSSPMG

T2: FcγRIIb (human, UniProt P31994 43-217)
T2 construct: extracellular domain; Soluble His-tagged extracellular domain expressed in FreeStyle293 cells; analyte in Biacore; also called FcgRIIb; 2b; not shown: His tag attached to the C terminus
T2 sequence (looked up): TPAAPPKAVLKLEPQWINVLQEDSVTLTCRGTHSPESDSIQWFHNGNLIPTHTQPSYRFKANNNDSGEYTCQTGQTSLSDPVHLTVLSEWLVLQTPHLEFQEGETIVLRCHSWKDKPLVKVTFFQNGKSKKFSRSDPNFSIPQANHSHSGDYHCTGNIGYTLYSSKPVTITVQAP


What was measured:
FcγRIIa R [1] = molecular target: T1, FcγRIIa R; assay: ratio of He/Con_2aR to He/Con_2b (binding to FcγRIIb as reference); SPR
FcγRIIb = molecular target: T2, FcγRIIb; assay: SPR (Biacore), antibody captured via antigen peptide, FcγR as analyte
Description: (§1) The heterodimerized antibodies He Abs in which one of the H chains was introduced with an alteration were assayed for their binding activities to each activating FcγR and inhibitory FcγR according to the method described in Example 4. […] The activating FcγRs in FIGS. 26, 27, 28, and 29 are FcγRIa, FcγRIIa (R), FcγRIIa (H), and FcγRIIIa, respectively.
(§2) Analysis of interaction between objective antibody and the FcγR was carried out using Biacore T100 (GE Healthcare). HBS-EP+ (GE Healthcare) was used as the running buffer, and the measurement temperature was set to 25° C. Chips produced by immobilizing the antigen peptide by the amine coupling method to a Series S Sencor Chip CM5 (GE Healthcare), or alternatively, chips produced by allowing preliminarily biotinylated antigen peptides to interact with and immobilize onto a Series S Sensor Chip SA (certified) (GE Healthcare) were used. Antibodies of interest were captured onto an antigen peptide-immobilized chip, and allowed to interact to each FcγR diluted with running buffer. To regenerate and repeatedly use the chip, the antibodies captured on the chip were washed off by reacting 10 mM glycine-HCl, pH 1.5.

FcγRIIa R [2] = molecular target: T1, FcγRIIa R; assay: as above
Description: as §1, §2

Binder | He_2aR/2b (IIaR/IIb) (FcγRIIa R [1]) | He/Con_2b (IIb binding relative to GpH7-A5/GpH7-B3/GpL16-k0) (FcγRIIb) | He/Con_2aR (IIaR binding relative to GpH7-A5/GpH7-B3/GpL16-k0) (FcγRIIa R [2])
GpH7-A5/GpH7-B3 variant P329_15Y/GpL16-k0 (antibody, human IgG1, kappa, Heterodimerized anti-glypican-3 IgG1 antibody; alteration only in the GpH7-B3 H chain; position in EU numbering; also called He Ab) heavy 1: not shown heavy 2: not shown light: DIVMTQSPLSLPVTPGEPASISCQASESLVHSNRNTYLHWYLQKPGQSPQLLIYKVSNRFSGVPDRFSGSGSGTDFTLKISRVEAEDVGVYYCSQNTHVPPTFGQGTKVEIERTVAAPSVFIFPPSDEQLKSGTASVVCLLNNFYPREAKVQWKVDNALQSGNSQESVTEQDSKDSTYSLSSTLTLSKADYEKHKVYACEVTHQGLSSPVTKSFNRGEC | 1.49 | 45.7 % of control (control = 100) | 67.9 % of control (control = 100)
GpH7-A5/GpH7-B3 variant P329_16H/GpL16-k0 (antibody, human IgG1, kappa, Heterodimerized anti-glypican-3 IgG1 antibody; alteration only in the GpH7-B3 H chain; position in EU numbering; also called He Ab) heavy 1: not shown heavy 2: not shown light: DIVMTQSPLSLPVTPGEPASISCQASESLVHSNRNTYLHWYLQKPGQSPQLLIYKVSNRFSGVPDRFSGSGSGTDFTLKISRVEAEDVGVYYCSQNTHVPPTFGQGTKVEIERTVAAPSVFIFPPSDEQLKSGTASVVCLLNNFYPREAKVQWKVDNALQSGNSQESVTEQDSKDSTYSLSSTLTLSKADYEKHKVYACEVTHQGLSSPVTKSFNRGEC | 1.45 | 39.1 % of control (control = 100) | 56.7 % of control (control = 100)
GpH7-A5/GpH7-B3 variant P329_18N/GpL16-k0 (antibody, human IgG1, kappa, Heterodimerized anti-glypican-3 IgG1 antibody; alteration only in the GpH7-B3 H chain; position in EU numbering; also called He Ab) heavy 1: not shown heavy 2: not shown light: DIVMTQSPLSLPVTPGEPASISCQASESLVHSNRNTYLHWYLQKPGQSPQLLIYKVSNRFSGVPDRFSGSGSGTDFTLKISRVEAEDVGVYYCSQNTHVPPTFGQGTKVEIERTVAAPSVFIFPPSDEQLKSGTASVVCLLNNFYPREAKVQWKVDNALQSGNSQESVTEQDSKDSTYSLSSTLTLSKADYEKHKVYACEVTHQGLSSPVTKSFNRGEC | 1.51 | 40.4 % of control (control = 100) | 61.2 % of control (control = 100)
GpH7-A5/GpH7-B3 variant P331_01G/GpL16-k0 (antibody, human IgG1, kappa, Heterodimerized anti-glypican-3 IgG1 antibody; alteration only in the GpH7-B3 H chain; position in EU numbering; also called He Ab) heavy 1: not shown heavy 2: not shown light: DIVMTQSPLSLPVTPGEPASISCQASESLVHSNRNTYLHWYLQKPGQSPQLLIYKVSNRFSGVPDRFSGSGSGTDFTLKISRVEAEDVGVYYCSQNTHVPPTFGQGTKVEIERTVAAPSVFIFPPSDEQLKSGTASVVCLLNNFYPREAKVQWKVDNALQSGNSQESVTEQDSKDSTYSLSSTLTLSKADYEKHKVYACEVTHQGLSSPVTKSFNRGEC | 1.34 | 45.4 % of control (control = 100) | 61 % of control (control = 100)

Now from value to binder:

He_2aR/2b (IIaR/IIb) (FcγRIIa R [1]) | He/Con_2b (IIb binding relative to GpH7-A5/GpH7-B3/GpL16-k0) (FcγRIIb) | He/Con_2aR (IIaR binding relative to GpH7-A5/GpH7-B3/GpL16-k0) (FcγRIIa R [2]) | Binder
1.51 | 37.9 % of control (control = 100) | 57.3 % of control (control = 100) | GpH7-A5/GpH7-B3 variant P329_14T/GpL16-k0 (antibody, human IgG1, kappa, Heterodimerized anti-glypican-3 IgG1 antibody; alteration only in the GpH7-B3 H chain; position in EU numbering; also called He Ab) heavy 1: not shown heavy 2: not shown light: DIVMTQSPLSLPVTPGEPASISCQASESLVHSNRNTYLHWYLQKPGQSPQLLIYKVSNRFSGVPDRFSGSGSGTDFTLKISRVEAEDVGVYYCSQNTHVPPTFGQGTKVEIERTVAAPSVFIFPPSDEQLKSGTASVVCLLNNFYPREAKVQWKVDNALQSGNSQESVTEQDSKDSTYSLSSTLTLSKADYEKHKVYACEVTHQGLSSPVTKSFNRGEC
1.34 | 30.7 % of control (control = 100) | 41.1 % of control (control = 100) | GpH7-A5/GpH7-B3 variant P329_19Q/GpL16-k0 (antibody, human IgG1, kappa, Heterodimerized anti-glypican-3 IgG1 antibody; alteration only in the GpH7-B3 H chain; position in EU numbering; also called He Ab) heavy 1: not shown heavy 2: not shown light: DIVMTQSPLSLPVTPGEPASISCQASESLVHSNRNTYLHWYLQKPGQSPQLLIYKVSNRFSGVPDRFSGSGSGTDFTLKISRVEAEDVGVYYCSQNTHVPPTFGQGTKVEIERTVAAPSVFIFPPSDEQLKSGTASVVCLLNNFYPREAKVQWKVDNALQSGNSQESVTEQDSKDSTYSLSSTLTLSKADYEKHKVYACEVTHQGLSSPVTKSFNRGEC
1.37 | 47.6 % of control (control = 100) | 65.1 % of control (control = 100) | GpH7-A5/GpH7-B3 variant S298_10E/GpL16-k0 (antibody, human IgG1, kappa, Heterodimerized anti-glypican-3 IgG1 antibody; alteration only in the GpH7-B3 H chain; position in EU numbering; also called He Ab) heavy 1: not shown heavy 2: not shown light: DIVMTQSPLSLPVTPGEPASISCQASESLVHSNRNTYLHWYLQKPGQSPQLLIYKVSNRFSGVPDRFSGSGSGTDFTLKISRVEAEDVGVYYCSQNTHVPPTFGQGTKVEIERTVAAPSVFIFPPSDEQLKSGTASVVCLLNNFYPREAKVQWKVDNALQSGNSQESVTEQDSKDSTYSLSSTLTLSKADYEKHKVYACEVTHQGLSSPVTKSFNRGEC
